For 2 molecules, Ki results are on record in article PMC4778124, “A continuous sirtuin activity assay without any coupling to enzymatic or chemical reactions” (Scientific Reports, 2016).

The target of the test is T1, human sirtuin 2 (human, UniProt Q8IXJ6 1-389).
T1 construct: sirtuin 2 (Sirt2), human; also called Sirt2
T1 sequence (looked up): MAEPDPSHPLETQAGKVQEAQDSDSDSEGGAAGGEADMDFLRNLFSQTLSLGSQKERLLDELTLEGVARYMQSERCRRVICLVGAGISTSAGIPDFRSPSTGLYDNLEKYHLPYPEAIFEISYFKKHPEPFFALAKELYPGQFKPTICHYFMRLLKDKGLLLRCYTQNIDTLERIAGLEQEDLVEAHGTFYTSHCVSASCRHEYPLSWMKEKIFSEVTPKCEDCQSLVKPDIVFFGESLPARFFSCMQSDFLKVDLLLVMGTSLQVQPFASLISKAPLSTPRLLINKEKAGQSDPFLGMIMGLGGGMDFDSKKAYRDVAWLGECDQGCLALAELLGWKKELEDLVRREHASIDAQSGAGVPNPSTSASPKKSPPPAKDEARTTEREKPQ
As to the kind of experiment: enzyme inhibition kinetics (continuous fluorescence activity assay); 96-well MTP fluorescence reader; kcat and KM for substrate 3 recorded at varying inhibitor concentrations (0.01-600 μM); 500 μM NAD+; 20 mM TRIS/HCl pH 7.8, 150 mM NaCl, 5 mM MgCl2; 37 °C; Ki from competitive and non-competitive inhibition models. The note with it: both partners purified.

Primed or numbered codes have the meaning given here. *: point of attachment. thiosuccinyl = lysine reacted with methyl 3-[(methylthio)thiocarbonyl]propanoate, then 1 M NaOH (thioxo peptide), O=C(O)CCC(=S)*; thioacetyl = lysine reacted with ethyl dithioacetate (thioxo peptide), CC(=S)*; Bz′ = not defined here

For {Bz′}-GVLK(thiosuccinyl)EYGV-NH2 (source: synthetic peptide) [thioxo peptide 11 based on the CPS1 peptide], the affinity corresponds to a Ki of 50 ± 9.9 µM.
The molecule {Bz′}-GVLK(thioacetyl)EYGV-NH2 (source: synthetic peptide) [thioxo peptide 10 based on the CPS1 peptide] displayed an inhibition constant Ki of 0.3 ± 0.1 µM.

One may read the Ki as the equilibrium dissociation constant of an inhibitor or competing ligand from its target. A high value points to lower affinity.
